Assay results published in patent US5985836A, “Alpha-1 proteinase inhibitor binding peptides” (Bayer Corporation, priority 1998, dated 1999).
Blank lines part the entries; values can stand above or below the substance they belong to. Ends that are not written are not given here.

Key:
[1] = biological target: T1, apolipoprotein alpha-1 (Apo A-1) (Homo sapiens, UniProt P02647); experiment: Purification from Effluent II+III, Apo A-1 mass balance; type: binding; conditions: 1 ml Eff. II+III, 4° C.
T1 construct: Eff; II+III is a process intermediate in the Cohn plasma fractionation process; tissue Bayer Corporation (Clayton, N.C.); host or cells: plasma fraction: Cohn Effluent II+III
T1 sequence (P02647 19-267): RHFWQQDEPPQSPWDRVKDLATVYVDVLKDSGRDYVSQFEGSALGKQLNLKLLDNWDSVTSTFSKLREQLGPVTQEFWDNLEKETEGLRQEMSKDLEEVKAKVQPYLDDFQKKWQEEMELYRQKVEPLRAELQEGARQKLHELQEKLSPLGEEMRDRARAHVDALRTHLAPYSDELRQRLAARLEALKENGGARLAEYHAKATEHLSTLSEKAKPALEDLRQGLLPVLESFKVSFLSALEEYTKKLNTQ
Description: (§1) Sequences 1-11 and 15 were assayed with Effluent II+III (Eff. II+III). Eff. II+III is a process intermediate in the Cohn plasma fractionation process. The feed stream contains 20% (by volume) ethanol, 20-25 mg/ml hSA and approximately 1 mg/ml AlPI. The stream also contains other proteins including anti-thrombin III (AT3), immunoglobin G (IgG), immunoglobin A (IgA), apolipoprotein alpha-1 (Apo A-1), transferrin (Trf), haptoglobin (Hpt), and alpha-1 acid glycoprotein (AAG) at concentrations ranging from 0.1-1 mg/ml.
(§2) The columns were assayed using the same technique as the hSA+AlPI experiments, allowing for a 10 minute residence time followed by a constant flow rate of 865 μl/min with step elutions of 1M NaCl, 3M NaCl, and 2% acetic acid. All experiments were conducted at 4° C. The mass balances for the injection of 1 ml Eff. […] The AlPI was enriched from 3% of the total protein in the feed to upwards of 50% in the acid eluate.

[2] = biological target: T2, A1PI (Homo sapiens, UniProt P01009); experiment: A1PI purification from 5 mg hSA + 1 mg A1PI on peptide column, A1PI mass balance; type: binding; conditions: for Percent Eluted by Fraction, 1M NaCl / Percent Eluted by Fraction, 2% Ac. Acid / Percent Eluted by Fraction, 3M NaCl / Percent Eluted by Fraction, Flow: relative to total eluted; for Mass AlPI Eluted in Acid Eluate: nephelometry
T2 construct: Human plasma is currently the only approved source of therapeutic AlPI
T2 sequence (P01009 25-418): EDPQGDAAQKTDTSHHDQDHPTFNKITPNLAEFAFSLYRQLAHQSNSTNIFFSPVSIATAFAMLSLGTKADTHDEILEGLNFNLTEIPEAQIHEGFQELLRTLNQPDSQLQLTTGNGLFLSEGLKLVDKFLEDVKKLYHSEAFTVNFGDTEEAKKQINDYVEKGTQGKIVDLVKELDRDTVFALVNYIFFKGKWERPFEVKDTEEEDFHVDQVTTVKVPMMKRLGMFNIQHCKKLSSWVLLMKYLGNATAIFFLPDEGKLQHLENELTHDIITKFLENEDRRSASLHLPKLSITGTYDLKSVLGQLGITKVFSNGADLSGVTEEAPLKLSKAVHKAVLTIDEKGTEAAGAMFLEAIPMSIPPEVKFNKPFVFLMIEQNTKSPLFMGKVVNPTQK
Description: Confirmatory binding assays were performed in a column chromatographic format on a microbore HPLC using individual peptide sequences synthesized directly onto the Toyopearl 650 M Chelate resin which had been modified with Totda followed by an alanine residue (A-Totda-Toyopearl), at a final substitution density of 0.1 mmole/g resin. The resin was packed into 0.4×5 cm columns (Thomson, Springfield, Va.) and tested on the Michrom HPLC system (Michrom BioResources, Auburn, Calif.). The elution program for all trials utilized the following method. The column was pre-equilibrated with equilibration buffer (as above). 1 ml of sample was injected and allowed sufficient time to flowthrough the column using equilibration buffer. The column was then washed with step elutions of 1M NaCl and 3M NaCl in equilibration buffer. The column was exposed to equilibration buffer with 0.1M NaCl. Any remaining protein was eluted with elution buffer (2% by volume glacial acetic acid in water).
A Gilson FC204 fraction collector at the HPLC outlet collected individual eluates for further analysis. Fractions collected from the 2% acetic acid eluates were neutralized with 2M Tris, pH 10.5 to bring the pH to neutrality. The protein samples were reconstituted in equilibration buffer unless otherwise stated. The samples were analyzed by the integration of the absorbance at 280 nm or by immunonephelometry. The specific method of determination is presented for each figure.
Columns were assayed with a mixture of 5 mg human serum albumin (hSA)+1 mg AlPI at 4° C. (Table 4, Seq. ID 1-11, 15, 17) and 20° C. (Table 5, Seq. ID 1-10, 13, 15, 17). The chromatography method was modified to provide for a 10 minute residence time of sample in the column by decreasing the flow to 17 μl/min (10 cm/hr) upon injection. Following the incubation, the flow was set at 865 μl/min (413 cm/hr) for the step elutions of 1M NaCl, 3M NaCl, and 2% acetic acid. The mass balances presented are based upon immunonephelometry. The Percent Eluted value is protein-specific and based on the amount of the protein eluted in a […]

[3] = biological target: T2, A1PI; experiment: Purification of A1PI from Effluent II+III on peptide column, A1PI mass balance; type: binding; conditions: A1PI, 1 ml Eff. II+III, 4° C.; for Mass Protein per Eluate Fraction, 1M NaCl / Mass Protein per Eluate Fraction, 2% Acetic Acid / Mass Protein per Eluate Fraction, Flow: * as in Tables 4, 5 (below detection limit)
Description: as §1, §2

[4] = biological target: T2, A1PI; experiment: A1PI binding on peptide-resin column, injection of 1 mg A1PI in equilibration buffer; conditions: 1 mg A1PI in equilibration buffer; for Percent A1PI Eluted by Fraction Based on Absorbance at 280 nm, 1M NaCl / Percent A1PI Eluted by Fraction Based on Absorbance at 280 nm, 2% Acetic Acid / Percent A1PI Eluted by Fraction Based on Absorbance at 280 nm, Flowthrough: 4° C.; for Percent A1PI Eluted by Fraction, 1M NaCl / Percent A1PI Eluted by Fraction, 2% Acetic Acid / Percent A1PI Eluted by Fraction, Flowthrough: 20° C.
Outline: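 Peptides synthesized on A-Totda-Toyopearl chelate resin (0.1 mmole/g) packed in 0.4×5 cm columns; 1 mg A1PI injected in equilibration buffer at 4 °C or 20 °C, 865 or 523 μl/min. Flowthrough, 1M/3M NaCl washes and 2% acetic acid eluate quantified by A280 or immunonephelometry as percent of total eluted.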

[5] = tested on: Immunoglobulin G (IgG); experiment: Purification from Effluent II+III, IgG mass balance; type: binding, human; conditions: 1 ml Eff. II+III, 4° C.
Description: as §1, §2

[6] = tested on: Immunoglobulin A (IgA); experiment: Purification from Effluent II+III, IgA mass balance; type: binding, human; conditions: 1 ml Eff. II+III, 4° C.
Description: as §1, §2

[7] = A1PI, 5 mg hSA + 1 mg A1PI, 4° C., * Below detection limit
[8] = A1PI, 5 mg hSA + 1 mg A1PI, 4° C.
[9] = * as in Tables 4, 5 (below detection limit)
[10] = A1PI, 5 mg hSA + 1 mg A1PI, 20° C., * Below detection limit
[11] = A1PI, 5 mg hSA + 1 mg A1PI, 20° C.

Percent Eluted by Fraction, 1M NaCl [1]: 0% | Percent Eluted by Fraction, 2% Acetic Acid [1]: 0% | Percent Eluted by Fraction, 3M NaCl [1]: 0% | Percent Eluted by Fraction, Flow [1]: 0% | Mass Protein per Eluate Fraction, 1M NaCl [2, 7]: 0.35 mg | Mass Protein per Eluate Fraction, 2% Ac. Acid [2, 7]: 0.35 mg | Mass Protein per Eluate Fraction, Flow [2, 7]: 0.06 mg | Percent Eluted by Fraction, 1M NaCl [2, 8]: 46% | Percent Eluted by Fraction, 2% Ac. Acid [2, 8]: 46% | Percent Eluted by Fraction, 3M NaCl [2, 8]: 0% | Percent Eluted by Fraction, Flow [2, 8]: 7% | Percent Eluted by Fraction, 1M NaCl [3]: 6% | Percent Eluted by Fraction, 2% Acetic Acid [3]: 75% | Percent Eluted by Fraction, 3M NaCl [3]: 0% | Percent Eluted by Fraction, Flow [3]: 20% | Mass Protein per Eluate Fraction, 1M NaCl [3]: 0.06 mg | Mass Protein per Eluate Fraction, 2% Acetic Acid [3]: 0.80 mg | Mass Protein per Eluate Fraction, Flow [3]: 0.21 mg | Percent A1PI Eluted by Fraction Based on Absorbance at 280 nm, 1M NaCl [4]: 74% | Percent A1PI Eluted by Fraction Based on Absorbance at 280 nm, 2% Acetic Acid [4]: 26% | Percent A1PI Eluted by Fraction Based on Absorbance at 280 nm, Flowthrough [4]: 0% | Percent A1PI Eluted by Fraction, 1M NaCl [4]: 0% | Percent A1PI Eluted by Fraction, 2% Acetic Acid [4]: 4% | Percent A1PI Eluted by Fraction, Flowthrough [4]: 96%
Substance: QYHFWY
Percent Eluted by Fraction, 1M NaCl [5]: 10% | Percent Eluted by Fraction, 2% Acetic Acid [5]: 0% | Percent Eluted by Fraction, 3M NaCl [5]: 0% | Percent Eluted by Fraction, Flow [5]: 90% | Mass Protein per Eluate Fraction, 1M NaCl [5, 9]: 0.02 mg | Mass Protein per Eluate Fraction, Flow [5, 9]: 0.21 mg | Percent Eluted by Fraction, 1M NaCl [6]: 31% | Percent Eluted by Fraction, 2% Acetic Acid [6]: 38% | Percent Eluted by Fraction, 3M NaCl [6]: 0% | Percent Eluted by Fraction, Flow [6]: 31% | Mass Protein per Eluate Fraction, 1M NaCl [6, 9]: 0.11 mg | Mass Protein per Eluate Fraction, 2% Acetic Acid [6, 9]: 0.13 mg | Mass Protein per Eluate Fraction, Flow [6, 9]: 0.11 mg

Percent Eluted by Fraction, 1M NaCl [1]: 0% | Percent Eluted by Fraction, 2% Acetic Acid [1]: 100% | Percent Eluted by Fraction, 3M NaCl [1]: 0% | Percent Eluted by Fraction, Flow [1]: 0% | Mass Protein per Eluate Fraction, 2% Acetic Acid [1, 9]: 0.35 mg | Mass AlPI Eluted in Acid Eluate ([2]; 250 μg AlPI injected with 5 mg hSA, 20° C.): 0.07 mg | Mass AlPI Eluted in Acid Eluate ([2]; 500 μg AlPI injected with 5 mg hSA, 20° C.): 0.15 mg | Mass AlPI Eluted in Acid Eluate ([2]; 1000 μg AlPI injected with 5 mg hSA, 20° C.): 0.39 mg | Mass Protein per Eluate Fraction, 1M NaCl [2, 7]: 0.50 mg | Mass Protein per Eluate Fraction, 2% Ac. Acid [2, 7]: 0.11 mg | Mass Protein per Eluate Fraction, Flow [2, 7]: 0.01 mg | Percent Eluted by Fraction, 1M NaCl [2, 8]: 80% | Percent Eluted by Fraction, 2% Ac. Acid [2, 8]: 18% | Percent Eluted by Fraction, 3M NaCl [2, 8]: 0% | Percent Eluted by Fraction, Flow [2, 8]: 2% | Mass Protein per Eluate Fraction, 1M NaCl [2, 10]: 0.42 mg | Mass Protein per Eluate Fraction, 2% Ac. Acid [2, 10]: 0.45 mg | Mass Protein per Eluate Fraction, 3M NaCl [2, 10]: 0.00 mg | Percent Eluted by Fraction, 1M NaCl [2, 11]: 48% | Percent Eluted by Fraction, 2% Ac. Acid [2, 11]: 52% | Percent Eluted by Fraction, 3M NaCl [2, 11]: 0% | Percent Eluted by Fraction, Flow [2, 11]: 0% | Percent Eluted by Fraction, 1M NaCl [3]: 22% | Percent Eluted by Fraction, 2% Acetic Acid [3]: 14% | Percent Eluted by Fraction, 3M NaCl [3]: 0% | Percent Eluted by Fraction, Flow [3]: 64% | Mass Protein per Eluate Fraction, 1M NaCl [3]: 0.20 mg | Mass Protein per Eluate Fraction, 2% Acetic Acid [3]: 0.13 mg | Mass Protein per Eluate Fraction, Flow [3]: 0.59 mg | Percent A1PI Eluted by Fraction Based on Absorbance at 280 nm, 1M NaCl [4]: 88% | Percent A1PI Eluted by Fraction Based on Absorbance at 280 nm, 2% Acetic Acid [4]: 12% | Percent A1PI Eluted by Fraction Based on Absorbance at 280 nm, Flowthrough [4]: 0% | Percent A1PI Eluted by Fraction, 1M NaCl [4]: 88% | Percent A1PI Eluted by Fraction, 2% Acetic Acid [4]: 12% | Percent A1PI Eluted by Fraction, Flowthrough [4]: 0%
Substance: RLWRYG
Percent Eluted by Fraction, 1M NaCl [5]: 0% | Percent Eluted by Fraction, 2% Acetic Acid [5]: 0% | Percent Eluted by Fraction, 3M NaCl [5]: 0% | Percent Eluted by Fraction, Flow [5]: 100% | Mass Protein per Eluate Fraction, Flow [5, 9]: 0.27 mg | Percent Eluted by Fraction, 1M NaCl [6]: 0% | Percent Eluted by Fraction, 2% Acetic Acid [6]: 31% | Percent Eluted by Fraction, 3M NaCl [6]: 0% | Percent Eluted by Fraction, Flow [6]: 69% | Mass Protein per Eluate Fraction, 2% Acetic Acid [6, 9]: 0.09 mg | Mass Protein per Eluate Fraction, Flow [6, 9]: 0.19 mg
